Experimental data published in publication doi:10.1101/2022.05.11.491540.
Read-outs that look alike come from different tables or passages of the source.

How the values were obtained:
Sirt7-CLB (human) = assay: NanoLuc complementation
Sirt7 (Sirt7WT) (human) [1] = assay: fluorescence polarization
[2] = system: isolated NanoLuc Large Bit; assay: NanoLuc complementation
Sirt7 (Sirt7WT) (human) [3] = assay: kinetic titration

SMB-AcNucs (H3K18Ac small-bit nucleosome)
Kd (Sirt7-CLB (human); histone H3K18 acetylation): 3.75 nM
binding signal (fold lower Kd than without ADPr) (Sirt7-CLB (human); histone H3K18 acetylation): 2.5

20 bp FAM-DNA
Kd (Sirt7 (Sirt7WT) (human) [1]): 57.2 nM

SMB-Nucs (unmodified small-bit nucleosome)
Kd [2]: > 5000 nM
Kd (Sirt7-CLB (human)): 3.92 nM

nucleosome core particle (unmodified)
Kd (Sirt7 (Sirt7WT) (human) [3]): 2.92 nM
